{"source": "the RNAGym collection of RNA variant scans (doi:10.7554/elife.80360)", "parents": {"B1": {"name": "HDV Ribozyme (parent)", "chain": "GGCCGGCAUGGUCCCAGCCUCCUCGCUGGCGCCGGCUGGGCAACAUUCCGAGGGGACCGUCCCCUCGGUAAUGGCGAAUGGGACCCA"}}, "data": [{"variants_of": "B1", "experiment": "self-cleavage, relative activity (ratio to wild type); higher = more cleavage; co-transcriptional", "values": [{"variant": "C24U C32U", "self-cleavage": 0.422}, {"variant": "C24U G50U", "self-cleavage": 0.585}, {"variant": "G25A C66U", "self-cleavage": 0.338}, {"variant": "C24U U72C", "self-cleavage": 0.104}, {"variant": "C24U C75G", "self-cleavage": 0.119}, {"variant": "C24G G76C", "self-cleavage": 0.219}, {"variant": "C24U U37G", "self-cleavage": 0.138}, {"variant": "G25A G54A", "self-cleavage": 0.242}, {"variant": "G25A G54U", "self-cleavage": 0.202}, {"variant": "G25C C57U", "self-cleavage": 0.219}, {"variant": "G25A C49G", "self-cleavage": 0.0755}, {"variant": "G25A C49U", "self-cleavage": 0.318}, {"variant": "G25A C49A", "self-cleavage": 0.101}, {"variant": "C24U A45U", "self-cleavage": 0.489}, {"variant": "C24U A45C", "self-cleavage": 0.26}, {"variant": "G25A A78C", "self-cleavage": 0.0302}, {"variant": "G25A A78U", "self-cleavage": 0.0346}, {"variant": "G25C U79C", "self-cleavage": 0.0923}, {"variant": "G25C U79A", "self-cleavage": 0.0615}, {"variant": "G25C U79G", "self-cleavage": 0.0594}, {"variant": "G25U A51G", "self-cleavage": 0.266}, {"variant": "G25U A51C", "self-cleavage": 0.135}, {"variant": "G25A C32G", "self-cleavage": 0.0623}, {"variant": "G25C G55C", "self-cleavage": 0.106}, {"variant": "G25A C48A", "self-cleavage": 0.491}, {"variant": "G25A C48G", "self-cleavage": 0.122}, {"variant": "G25C G80C", "self-cleavage": 0.17}, {"variant": "G25C C26U", "self-cleavage": 0}, {"variant": "G25A G34U", "self-cleavage": 0.0702}, {"variant": "G25C C85G", "self-cleavage": 0.125}, {"variant": "G25C C85U", "self-cleavage": 0}, {"variant": "G25C A70C", "self-cleavage": 0.0639}, {"variant": "G25C A70U", "self-cleavage": 0.0898}, {"variant": "G25C C62A", "self-cleavage": 0.18}, {"variant": "G25C A77C", "self-cleavage": 0.104}, {"variant": "G25C A77U", "self-cleavage": 0}, {"variant": "G25C G81A", "self-cleavage": 0}, {"variant": "G25C U60A", "self-cleavage": 0.256}, {"variant": "G25A G67U", "self-cleavage": 0.401}, {"variant": "C24U G34C", "self-cleavage": 0.135}, {"variant": "C24U G34A", "self-cleavage": 0.0292}, {"variant": "G25A U69C", "self-cleavage": 0.302}, {"variant": "C24U U27G", "self-cleavage": 0.431}, {"variant": "C24U U27A", "self-cleavage": 0.399}, {"variant": "C24U U27C", "self-cleavage": 0.332}, {"variant": "C24U C86G", "self-cleavage": 0.577}, {"variant": "C24U C86A", "self-cleavage": 0.808}, {"variant": "C24U C86U", "self-cleavage": 0.69}, {"variant": "G25A G74A", "self-cleavage": 0.0767}, {"variant": "G25A G74U", "self-cleavage": 0.0583}, {"variant": "G25A G74C", "self-cleavage": 0.163}, {"variant": "G25A G50C", "self-cleavage": 0.181}, {"variant": "G25C C64U", "self-cleavage": 0.0369}, {"variant": "G25C C64A", "self-cleavage": 0.203}, {"variant": "G25C A56G", "self-cleavage": 0.161}, {"variant": "G25C A56U", "self-cleavage": 0.178}, {"variant": "G25C A56C", "self-cleavage": 0.115}, {"variant": "C24U G31A", "self-cleavage": 0.169}, {"variant": "C24U G31C", "self-cleavage": 0.0615}, {"variant": "G25A G39C", "self-cleavage": 0.0332}, {"variant": "G25A G39U", "self-cleavage": 0.0244}, {"variant": "C24G G82C", "self-cleavage": 0}, {"variant": "C24G G82A", "self-cleavage": 0}, {"variant": "G25A G82A", "self-cleavage": 0.0978}, {"variant": "G25A U79G", "self-cleavage": 0}, {"variant": "C24U U69C", "self-cleavage": 0.831}, {"variant": "C24U U69G", "self-cleavage": 0.764}, {"variant": "C24U U69A", "self-cleavage": 0.617}, {"variant": "C24U G54A", "self-cleavage": 0.779}, {"variant": "C24U G54C", "self-cleavage": 0.748}, {"variant": "C24U G54U", "self-cleavage": 0.618}, {"variant": "G25A C41A", "self-cleavage": 0.212}, {"variant": "G25A C41G", "self-cleavage": 0.177}, {"variant": "C24U C66U", "self-cleavage": 0.629}, {"variant": "C24U C66G", "self-cleavage": 0.796}, {"variant": "G25C C41U", "self-cleavage": 0.0707}, {"variant": "G25C C41A", "self-cleavage": 0.0898}, {"variant": "C24U G74C", "self-cleavage": 0.332}, {"variant": "C24U G74A", "self-cleavage": 0.0639}, {"variant": "G25U A56G", "self-cleavage": 0.0554}, {"variant": "G25U A56C", "self-cleavage": 0.122}, {"variant": "C24G G73A", "self-cleavage": 0.151}, {"variant": "C24G G73U", "self-cleavage": 0.0841}, {"variant": "G25C A71C", "self-cleavage": 0.0475}]}]}
